Data taken from US20220213213A1.
Residue numbers refer to the chain shown, from its start. Values belong to the binder of their own block, whether it stands above or below them.

What was measured:
[1] = molecular target: human/mouse 5T4 chimera E1 (human/mouse chimera) (UniProt Q13641); assay: flow cytometry, chimera-transfected cells
[2] = molecular target: human/mouse 5T4 chimera E2 (human/mouse chimera) (UniProt Q13641); assay: flow cytometry, chimera-transfected cells
[3] = molecular target: human/mouse 5T4 chimera E3 (human/mouse chimera) (UniProt Q13641); assay: flow cytometry, chimera-transfected cells
[4] = molecular target: human/mouse 5T4 chimera E4 (human/mouse chimera) (UniProt Q13641); assay: flow cytometry, chimera-transfected cells
[5] = molecular target: human/mouse 5T4 chimera E5 (human/mouse chimera) (UniProt Q13641); assay: flow cytometry, chimera-transfected cells
[6] = molecular target: human/mouse 5T4 chimera E6 (human/mouse chimera) (UniProt Q13641); assay: flow cytometry, chimera-transfected cells
[7] = molecular target: human/mouse 5T4 chimera E7 (human/mouse chimera) (UniProt Q13641); assay: flow cytometry, chimera-transfected cells
[8] = molecular target: human/mouse CD137 chimera 1550 (human/mouse chimera) (UniProt Q07011); assay: flow cytometry, transfected 293-F cells
[9] = molecular target: human/mouse CD137 chimera 1551 (human/mouse chimera) (UniProt Q07011); assay: flow cytometry, transfected 293-F cells
[10] = molecular target: human/mouse CD137 chimera 1552 (human/mouse chimera) (UniProt Q07011); assay: flow cytometry, transfected 293-F cells
[11] = molecular target: human/mouse CD137 chimera 1553 (human/mouse chimera) (UniProt Q07011); assay: flow cytometry, transfected 293-F cells
[12] = molecular target: human/mouse CD137 chimera 1554 (human/mouse chimera) (UniProt Q07011); assay: flow cytometry, transfected 293-F cells
[13] = molecular target: human/mouse CD137 chimera 1555 (human/mouse chimera) (UniProt Q07011); assay: flow cytometry, transfected 293-F cells
[14] = molecular target: human/mouse CD137 chimera 1550 (human/mouse chimera) (UniProt Q07011); assay: flow cytometry, transfected 293-F cells, Exp 1
[15] = molecular target: human/mouse CD137 chimera 1551 (human/mouse chimera) (UniProt Q07011); assay: flow cytometry, transfected 293-F cells, Exp 1
[16] = molecular target: human/mouse CD137 chimera 1552 (human/mouse chimera) (UniProt Q07011); assay: flow cytometry, transfected 293-F cells, Exp 1
[17] = molecular target: human/mouse CD137 chimera 1553 (human/mouse chimera) (UniProt Q07011); assay: flow cytometry, transfected 293-F cells, Exp 1
[18] = molecular target: human/mouse CD137 chimera 1554 (human/mouse chimera) (UniProt Q07011); assay: flow cytometry, transfected 293-F cells, Exp 1
[19] = molecular target: human/mouse CD137 chimera 1555 (human/mouse chimera) (UniProt Q07011); assay: flow cytometry, transfected 293-F cells, Exp 1
[20] = molecular target: human/mouse CD137 chimera 1550 (human/mouse chimera) (UniProt Q07011); assay: flow cytometry, transfected 293-F cells, Exp 2
[21] = molecular target: human/mouse CD137 chimera 1551 (human/mouse chimera) (UniProt Q07011); assay: flow cytometry, transfected 293-F cells, Exp 2
[22] = molecular target: human/mouse CD137 chimera 1552 (human/mouse chimera) (UniProt Q07011); assay: flow cytometry, transfected 293-F cells, Exp 2
[23] = molecular target: human/mouse CD137 chimera 1553 (human/mouse chimera) (UniProt Q07011); assay: flow cytometry, transfected 293-F cells, Exp 2
[24] = molecular target: human/mouse CD137 chimera 1554 (human/mouse chimera) (UniProt Q07011); assay: flow cytometry, transfected 293-F cells, Exp 2
[25] = molecular target: human/mouse CD137 chimera 1555 (human/mouse chimera) (UniProt Q07011); assay: flow cytometry, transfected 293-F cells, Exp 2

- normalized % positive cells [1]: 0.96
- normalized % positive cells [2]: 0.74
- normalized % positive cells [3]: 0.25
- normalized % positive cells [4]: 0.52
- normalized % positive cells [5]: 0.9
- normalized % positive cells [6]: 0.94
- normalized % positive cells [7]: 0.94
B1: 1206/1207 (antibody, V domains shown)
VH: EVQLLESGGGLVQPGGSLRLSCAASGFTFSGSSMSWVRQAPGKGLEWVSSIYYSGSGTYYADSVKGRFTISRDNSKNTLYLQMNSLRAEDTAVYYCARYGRNVHPYNLDYWGQGTLVTVSS
VL: DIQMTQSPSSLSASVGDRVTITCRASQSISSYLNWYQQKPGKAPKLLIYAASSLQSGVPSRFSGSGSGTDFTLTISSLQPEDFATYYCQQGYYYLPTFGQGTKLEIK

- relative MFI normalized to full-length human CD137 [8]: 0.11
- relative MFI normalized to full-length human CD137 [9]: 0.67
- relative MFI normalized to full-length human CD137 [10]: 1.2
- relative MFI normalized to full-length human CD137 [11]: 1.24
- relative MFI normalized to full-length human CD137 [12]: 1.01
- relative MFI normalized to full-length human CD137 [13]: 0.12
B2: 1618/1619 (antibody, V domains shown)
VH: EVQLLESGGGLVQPGGSLRLSCAASGFTFSYGSMYWVRQAPGKGLEWVSSISSGSGSTYYADSVKGRFTISRDNSKNTLYLQMNSLRAEDTAVYYCARSSYYGSYYSIDYWGQGTLVTVSS
VL: B1 VL with G91Y, Y93D, Y94N

- normalized % positive cells [1]: 0.89
- normalized % positive cells [2]: 0.9
- normalized % positive cells [3]: 0.93
- normalized % positive cells [4]: 1
- normalized % positive cells [5]: 0.84
- normalized % positive cells [6]: 0.03
- normalized % positive cells [7]: 0.88
B3: 1212/1213 (antibody, V domains shown)
VH: EVQLLESGGGLVQPGGSLRLSCAASGFTFSSYAMSWVRQAPGKGLEWVSYISSYGGYTSYADSVKGRFTISRDNSKNTLYLQMNSLRAEDTAVYYCARYHSGVLDYWGQGTLVTVSS
VL: DIQMTQSPSSLSASVGDRVTITCRASQSISSYLNWYQQKPGKAPKLLIYAASSLQSGVPSRFSGSGSGTDFTLTISSLQPEDFATYYCQQYYYHYLLTFGQGTKLEIK

- relative MFI normalized to full-length human CD137 [8]: 0.07
- relative MFI normalized to full-length human CD137 [9]: 0.11
- relative MFI normalized to full-length human CD137 [10]: 0.13
- relative MFI normalized to full-length human CD137 [11]: 0.85
- relative MFI normalized to full-length human CD137 [12]: 0.73
- relative MFI normalized to full-length human CD137 [13]: 0.28
B4: 1204/1205 (antibody, V domains shown)
VH: EVQLLESGGGLVQPGGSLRLSCAASGFTFSSYYMGWVRQAPGKGLEWVSGIGSYYGYTGYADSVKGRFTISRDNSKNTLYLQMNSLRAEDTAVYYCARAYYDYNYYYAYFDYWGQGTLVTVSS
VL: B3 VL with Y91S, Y92V, Y93P, L96P, L97F

- relative MFI normalized to full-length human CD137 [8]: 0.1
- relative MFI normalized to full-length human CD137 [9]: 0.11
- relative MFI normalized to full-length human CD137 [10]: 0.11
- relative MFI normalized to full-length human CD137 [11]: 0.14
- relative MFI normalized to full-length human CD137 [12]: 0.12
- relative MFI normalized to full-length human CD137 [13]: 0.29
B5: 1626/1627 (antibody, V domains shown)
VH: EVQLLESGGGLVQPGGSLRLSCAASGFTFGGYSMYWVRQAPGKGLEWVSSIGGYYYSTYYADSVKGRFTISRDNSKNTLYLQMNSLRAEDTAVYYCARSYYGSIDYWGQGTLVTVSS
VL: B3 VL with Y91G, Y92T, Y93G, H94Y, Y95G, L96P

- relative MFI normalized to full-length human CD137 [8]: 0.05
- relative MFI normalized to full-length human CD137 [9]: 0.05
- relative MFI normalized to full-length human CD137 [10]: 0.06
- relative MFI normalized to full-length human CD137 [11]: 0.65
- relative MFI normalized to full-length human CD137 [12]: 0.51
- relative MFI normalized to full-length human CD137 [13]: 0.26
B6: 1202/1203 (antibody, V domains shown)
VH: EVQLLESGGGLVQPGGSLRLSCAASGFTFYGSSMSWVRQAPGKGLEWVSSIYYGSSGTYYADSVKGRFTISRDNSKNTLYLQMNSLRAEDTAVYYCARSYYGYFDYWGQGTLVTVSS
VL: B3 VL with Y93T, H94V, Y95V, L96P, L97F

- relative MFI normalized to full-length human CD137 [8]: 0.05
- relative MFI normalized to full-length human CD137 [9]: 0.04
- relative MFI normalized to full-length human CD137 [10]: 0.05
- relative MFI normalized to full-length human CD137 [11]: 0.65
- relative MFI normalized to full-length human CD137 [12]: 0.84
- relative MFI normalized to full-length human CD137 [13]: 0.24
B7: 1200/1201 (antibody, V domains shown)
VH: EVQLLESGGGLVQPGGSLRLSCAASGFTFSSYAMSWVRQAPGKGLEWVSGISGGGGGTYYADSVKGRFTISRDNSKNTLYLQMNSLRAEDTAVYYCARDVAYFDYWGQGTLVTVSS
VL: DIQMTQSPSSLSASVGDRVTITCRASQSISSYLNWYQQKPGKAPKLLIYAASSLQSGVPSRFSGSGSGTDFTLTISSLQPEDFATYYCQQYYIPHTFGQGTKLEIK

- relative MFI normalized to full-length human CD137 [8]: 0.17
- relative MFI normalized to full-length human CD137 [9]: 0.33
- relative MFI normalized to full-length human CD137 [10]: 0.18
- relative MFI normalized to full-length human CD137 [11]: 0.17
- relative MFI normalized to full-length human CD137 [12]: 0.17
- relative MFI normalized to full-length human CD137 [13]: 0.32
B8: 1620/1621 (antibody, V domains shown)
VH: EVQLLESGGGLVQPGGSLRLSCAASGFTFSGYYMYWVRQAPGKGLEWVSGISSSGSYTYYADSVKGRFTISRDNSKNTLYLQMNSLRAEDTAVYYCARSVGPYFDYWGQGTLVTVSS
VL: B7 VL with Y91G, Y92V, I93G, H95Y

- relative MFI normalized to full-length human CD137 [14]: 0.06
- relative MFI normalized to full-length human CD137 [15]: 0.07
- relative MFI normalized to full-length human CD137 [16]: 0.32
- relative MFI normalized to full-length human CD137 [17]: 0.41
- relative MFI normalized to full-length human CD137 [18]: 0.26
- relative MFI normalized to full-length human CD137 [19]: 0.3
- relative MFI normalized to full-length human CD137 [20]: 0.14
- relative MFI normalized to full-length human CD137 [21]: 0.15
- relative MFI normalized to full-length human CD137 [22]: 0.13
- relative MFI normalized to full-length human CD137 [23]: 0.15
- relative MFI normalized to full-length human CD137 [24]: 0.15
- relative MFI normalized to full-length human CD137 [25]: 0.45
B9: 1214/1215 (antibody, V domains shown)
VH: B7 VH with G50S, S52G, G53S, G57Y, Y59G, D99V, V100G, A101H, Y102P
VL: B7 VL with Y91D, Y92A, I93Y
